B1: C121 (antibody, V domains shown)
VH: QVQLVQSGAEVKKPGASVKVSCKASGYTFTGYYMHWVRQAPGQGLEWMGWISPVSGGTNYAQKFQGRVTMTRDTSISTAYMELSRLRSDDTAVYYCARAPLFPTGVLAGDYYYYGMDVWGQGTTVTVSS
VL: QSALTQPASVSGSPGQSITISCTGTSSDVGSYNLVSWYQQHPGKAPKLMIYEGSKRPSGVSNRFSGSKSGNTASLTISGLQAEDEADYYCCSYAGSSTLVFGGGTKLTVL
B2: C030 (antibody, V domains shown)
VH: EVQLVESGGGVVQPGRSLRLSCAASGFTFSSYGMHWVRQAPGKGLEWVAVISYDGSNKYYADSVKGRFTISRDNSKNTLYLQMNSLRAEDTAVYYCAKASGIYCSGGNCYSYYFDYWGQGTLVTVSS
VL: not shown
B3: C005 (antibody, V domains shown)
VH: QVQLVQSGPEVKKPGTSVKVSCKASGFTFTSSAVQWVRQARGQRLEWIGWIVVGSGNTNYAQKFQERVTITRDMSTSTAYMELSSLRSEDTAVYYCAAPHCSGGSCLDAFDIWGQGTMVTVSS
VL: not shown
B4: C107 (antibody, V domains shown)
VH: QVQLVQSGAEVKKPGASVRVSCKASGYTFTSYGFSWVRQAPGQGLEWMGWISAYNGNTNFAQKLQGRVTMTTDTSTSTAYMELRSLRSDDTAVYYCARGEAVAGTTGFFDYWGQGTLVTVSS
VL: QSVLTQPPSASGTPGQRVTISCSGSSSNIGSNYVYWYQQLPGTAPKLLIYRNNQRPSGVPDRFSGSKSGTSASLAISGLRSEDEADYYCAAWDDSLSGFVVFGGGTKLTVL
B5: C117 (antibody, V domains shown)
VH: QVQLVESGGGVVQPGRSLRLSCAASGFTFSTYAMHWVRQAPGEGLEWVAVISYDGSNTYYADSVKGRFTISRDNSKNTLYLQMNSLRAEDTAVYYCARDPIWFGELLSPPFVHFDYWGQGTLVTVSS
VL: QSVLTQPPSVSAAPGQKVTISCSGSSSNIGNNLVSWYQQLPGTAPKLLIYENNKRPSGIPDRFSGSKSGTSATLGITGLQTGDEADYYCGAWDSSLSAGGVYVFGTGTKVTVL
B6: C216 (antibody, V domains shown)
VH: EVQLVESGGGLVQPGGSLRLSCAASGFTFSSYDMHWVRQATGKGLEWVSAIGTAGDTYYPDSVKGRFTISRENAKNSLYLQMNSLRAGDTAVYYCARDRGSSGWYGWYFDLWGRGTLVTVSS
VL: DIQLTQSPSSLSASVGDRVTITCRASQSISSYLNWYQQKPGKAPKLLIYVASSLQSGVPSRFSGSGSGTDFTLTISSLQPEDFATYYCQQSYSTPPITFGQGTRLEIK
B7: C122 (antibody, V domains shown)
VH: EVQLVESGGGLIQPGGSLRLSCAASGLTVSSNYMSWVRQAPGKGLEWVSVLYSGGSSFYADSVKGRFTISRDNSKNTLYLQMNSLRAEDTAVYYCARESGDTTMAFDYWGQGTLVTVSS
VL: DIQLTQSPSFLSASVGDRVTITCRASQGISSYLAWYQQKPGKAPKLLIYAASTLQSGVPSRFSGSGSGTEFTLTISSLQPEDFATYYCQQLNSDSYTFGQGTKLEIK
B8: C201 (antibody, V domains shown)
VH: EVQLVESGGGLVQPGRSLRLSCAASGFTFDDYAMHWVRQAPGKGLEWVSGISWNSGSIGYADSVKGRFTISRDNAKNSLYLQMNSLRAEDTALYYCVKGVEYSSSSNFDYWGQGTLVTVSS
VL: IRMTQSPSSVSASVGDRVTITCRASQGISSWLAWYQQKPGKAPKLLIYVESSLQSGVPSRFSGSGSGTDFTLTISSLQPEDFATYYCQQANSFPLTFGGGTKVEIK
B9: C141 (antibody, V domains shown)
VH: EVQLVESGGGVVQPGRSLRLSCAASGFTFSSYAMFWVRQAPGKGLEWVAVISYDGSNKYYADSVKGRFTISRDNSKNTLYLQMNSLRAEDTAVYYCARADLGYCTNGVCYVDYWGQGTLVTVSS
VL: NFMLTQPHSVSESPGKTVTISCTGSSGSIASNYVQWYQQRPGSAPTTVIYEDNQRPSGVPDRFSGSIDSSSNSASLTISGLKTEDEADYYCQSYDSSNWVFGGGTKLTVL
B10: C116 (antibody, V domains shown)
VH: QVQLVESGGGVVQPGRSLRLSCAASGFTYSTYAMHWVRQAPGKGLEWVAFISYDGSNKYYADSVKGRFTISRDNSKNTLYLQMNSLRAEDTAVYYCARDFYHNWFDPWGQGTLVTVSS
VL: NFMLTQPHSVSESPGKTVTISCTGSSGSIASNYVQWYQQRPGSAPTTVIYEDNQRPSGVPDRFSGSIDRSSNSASLTISGLKTEDEADYYCQSYDSGNHWVVFGGGTRLTVL

Where only a bound is given, the exact number is not on record here.

The first experiment addresses SARS-CoV-2 RBD (SARS-CoV-2, UniProt P0DTC2). The experiment in a line: ELISA. Background: In an ELISA, binding on a coated surface is turned into a signal by an enzyme label.
The term EC50 denotes the concentration needed to bring the measured effect to its halfway point. A high value points to lower potency in that assay. With B1, the EC50 was 2.85 ng/mL.
Consider B2, for which the EC50 is 2.89 ng/mL.
Same read-out and setting: under B3 stands 4.41 ng/mL.
On to B4, for which the EC50 stood at 11.6 ng/mL.
Molecule B5 returned a 50% effective concentration (EC50) of 5.38 ng/mL.
Consider B6, for which the EC50 was 9.53 ng/mL.
In the case of B7, the EC50 turned out to be 2.67 ng/mL.
For B8, the midpoint of the response, the EC50, lay at 2.98 ng/mL.
Regarding B9, the midpoint of the response, the EC50, lay at 1.71 ng/mL. Against the preceding molecule, the EC50 is about 1.7-fold lower.
On the same count and under the same terms, for B10 the value was 37.6 ng/mL.

The target in the next experiment is SARS-CoV RBD (SARS-CoV, UniProt P59594). The experiment in a line: ELISA.
Molecule B1 gave an EC50 above 1000 ng/mL.
The same measure, in the same setting: for B2 the value was above 1000 ng/mL.
On the same count and under the same terms, for B3 the value was above 1000 ng/mL; for B4, above 1000 ng/mL.
With B5, the EC50 is above 1000 ng/mL.
B6 gave an EC50 above 1000 ng/mL.
Still for that read-out and setting: for B7 the value was above 1000 ng/mL.
Same read-out and setting: for B8 the value was above 1000 ng/mL; for B9, above 1000 ng/mL.
Still for that read-out and setting: under B10 stands above 1000 ng/mL.

For the origin of these results see patent publication US11634477 (dated 2023).
